Patent publication US20240239877A1

Biological target: 123 different clinical envelope proteins
Experiment: cell-based or functional assay

B1: CD4 A Adnectin (anti-CD4 Domain 2 Adnectin) (designed binder)
chain: GVSDVPRDLEVVAATPTSLLISWDAPAVTVHSYHIQYWPLGSYQRYQVFSVPGSKSTATISGLKPGVEYQIRVYAETGGADSDQSFGWIQIGYRTP
- Geometric mean EC50 (nM), cell-cell fusion assay: 5.5 nM
- Geometric mean EC50 (µg/mL), cell-cell fusion assay: 0.006 µg/mL
- Median EC50 (nM), cell-cell fusion assay: 5.3 nM

B2: CD4 B Adnectin (anti-CD4 Domain 4 Adnectin) (designed binder)
chain: MASTSGSASYLIPSDLEVVAATPTSLSIYWYPVASTIINFRITYVETGGNSPVQEFTVPGSKSTATISGLKPGVDYTITVYAVHYEQKYSEYWIGHPISINYRTEGSGSHHHHHH
- Geometric mean EC50 (nM), cell-cell fusion assay: 163 nM
- Geometric mean EC50 (µg/mL), cell-cell fusion assay: 1.8 µg/mL
- Median EC50 (nM), cell-cell fusion assay: 1300 nM
